# Laboratory results as given in US20110038894A1 (NATIONAL HEALTH RESEARCH INSTITUTES, published 2011).
# Target: His-tag fused human HLA-A2 heavy chain (His-HLA-A2) with His-Tag fused human β2-microglobulin (His-β2) (human)
# Experiment: MHC-peptide complex formation assay: refolding of His-HLA-A2, His-β2m and peptide, sandwich ELISA (W6/32 capture, anti-β2m detection), relative to positive control peptide
row,Binder,Relative binding (%)
1,"CIGHSLVGL (also called TAL6 9-17) [TAL6 peptide No. 1 of Table 1, CIGHSLVGL]",93.3%
2,"GLAEGPLCL (also called TAL6 114-122) [TAL6 peptide No. 10 of Table 1, GLAEGPLCL]",72.4%
3,"HIVEWNVSL (also called TAL6 154-162) [TAL6 peptide No. 11 of Table 1, HIVEWNVSL]",91.1%
4,"SLFSILLAL (also called TAL6 161-169) [TAL6 peptide No. 12 of Table 1, SLFSILLAL]",42.6%
5,"SILLALGGI (also called TAL6 164-172) [TAL6 peptide No. 13 of Table 1, SILLALGGI]",51.8%
6,"ALGGIEFIL (also called TAL6 168-176) [TAL6 peptide No. 14 of Table 1, ALGGIEFIL]",113%
7,"CLIQVINGV (also called TAL6 177-185) [TAL6 peptide No. 15 of Table 1, CLIQVINGV]",26.3%
8,"VINGVLGGI (also called TAL6 181-189) [TAL6 peptide No. 16 of Table 1, VINGVLGGI]",59.1%
9,"SLVGLALLC (also called TAL6 13-21) [TAL6 peptide No. 2 of Table 1, SLVGLALLC]",126%
10,"ALLCIAANI (also called TAL6 18-26) [TAL6 peptide No. 3 of Table 1, ALLCIAANI]",53.6%
11,"IVGGGLLML (also called TAL6 53-61) [TAL6 peptide No. 4 of Table 1, IVGGGLLML]",43.4%
12,"LLMLLPAFV (also called TAL6 58-66) [TAL6 peptide No. 5 of Table 1, LLMLLPAFV]",134%
13,"MLLPAFVFI (also called TAL6 60-68) [TAL6 peptide No. 6 of Table 1, MLLPAFVFI]",155%
14,"AMLSSVLAA (also called TAL6 89-97) [TAL6 peptide No. 7 of Table 1, AMLSSVLAA]",115%
15,"MLSSVLAAL (also called TAL6 90-98) [TAL6 peptide No. 8 of Table 1, MLSSVLAAL]",163%
16,"SVLAALIGI (also called TAL6 93-101) [TAL6 peptide No. 9 of Table 1, SVLAALIGI]",158%
